The target in experiment [1] is T1, Human CLEC12A-His (human, UniProt Q5QGZ9 65-265).
T1 construct: Recombinant soluble protein made in house; also called hCLEC12A-His; hCLEC12A; not shown: His tag
T1 sequence: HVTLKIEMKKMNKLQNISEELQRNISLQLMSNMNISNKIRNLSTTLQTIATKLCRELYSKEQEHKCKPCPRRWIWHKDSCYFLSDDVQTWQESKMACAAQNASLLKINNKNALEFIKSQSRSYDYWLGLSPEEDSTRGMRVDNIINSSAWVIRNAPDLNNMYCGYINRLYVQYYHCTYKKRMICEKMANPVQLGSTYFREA
The experiment in a line: SPR; control sample (low pH hold study). In general terms: In SPR one partner is held on a chip, and binding of the other changes the refractive index at the surface.

The target in experiment [2] is T2, mFc-hNKG2D (human, UniProt P26718 73-216).
T2 construct: extracellular domain; Recombinant mFc-tagged NKG2D dimer, made in house; also called human NKG2D; not shown: mouse Fc tag
T2 sequence (looked up): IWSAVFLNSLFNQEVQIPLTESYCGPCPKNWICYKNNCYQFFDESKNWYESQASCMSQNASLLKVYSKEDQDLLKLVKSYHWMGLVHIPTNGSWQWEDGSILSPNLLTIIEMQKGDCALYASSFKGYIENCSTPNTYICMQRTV
The experiment in a line: SPR; control sample (low pH hold study).

Experiment [3] has as its target T3, Human CD16a V158 (human, UniProt P08637 17-208, biotinylated).
T3 construct: Bought recombinant receptor; also called hCD16a (V158); hFcγRIIIa V158
In words: SPR; control sample (low pH hold study).

A further experiment addresses T4, Human CD32b (human, UniProt P31994 46-217, limits assumed, biotinylated).
T4 construct: Bought recombinant receptor; also called hFcγRIIb
T4 sequence (looked up): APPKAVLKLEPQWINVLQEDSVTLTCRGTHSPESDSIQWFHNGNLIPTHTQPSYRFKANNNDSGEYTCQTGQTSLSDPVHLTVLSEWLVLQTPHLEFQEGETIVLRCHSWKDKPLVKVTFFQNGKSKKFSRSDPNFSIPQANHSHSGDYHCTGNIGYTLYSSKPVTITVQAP
The experiment in a line: SPR, steady state fit; average for AB0192.

Experiment [4] concerns the target T1, Human CLEC12A-His. In words: SPR; sample after 4 weeks at 40 C in CST pH 7.0.
Experiment [5] deals with T2, mFc-hNKG2D. The experiment in a line: SPR; sample after 4 weeks at 40 C in CST pH 7.0.
Experiment [6] deals with T3, Human CD16a V158. The experiment in a line: SPR; sample after 4 weeks at 40 C in CST pH 7.0.
Experiment [7] has as its target T5, recombinant human CLEC12A-His (human, UniProt Q5QGZ9 65-265).
T5 construct: also called hCLEC12A-His; hCLEC12A
T5 sequence: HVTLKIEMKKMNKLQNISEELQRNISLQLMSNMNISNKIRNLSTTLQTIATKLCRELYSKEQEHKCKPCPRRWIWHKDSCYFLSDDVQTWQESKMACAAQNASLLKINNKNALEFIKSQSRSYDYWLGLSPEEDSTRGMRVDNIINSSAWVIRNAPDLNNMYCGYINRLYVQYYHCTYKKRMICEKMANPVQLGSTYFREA
In words: SPR 37C, average.

T3 sequence (P08637 17-208 F176V limits assumed): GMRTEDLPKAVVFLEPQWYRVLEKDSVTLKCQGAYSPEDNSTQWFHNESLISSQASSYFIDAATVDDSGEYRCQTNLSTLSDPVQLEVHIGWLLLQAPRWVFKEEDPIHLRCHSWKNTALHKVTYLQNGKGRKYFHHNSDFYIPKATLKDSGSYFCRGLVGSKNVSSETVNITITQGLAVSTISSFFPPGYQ

B1: AB0192 TriNKET (other)
chain: EVQLVESGGGVVQPGGSLRLSCAASGFTFNAFGMHWVRQAPGKCLEWVAFISSGSTSIYYANTVKGRFTISRDNSKNTLYLQMNSLRAEDTAVYYCARDGYPTGGAMDYWGQGTSVTVSSGGGGSGGGGSGGGGSGGGGSDIQMTQSPSSLSASVGDRVTITCKASQDIYNYLSWFQQKPGKAPKPLIYRANILVSGVPSRFSGSGSGQDYTFTISSLQPEDIATYYCLQFDAFPFTFGCGTKLEIKGSDKTHTCPPCPAPELLGGPSVFLFPPKPKDTLMISRTPEVTCVVVDVSHEDPEVKFNWYVDGVEVHNAKTKPREEQYNSTYRVVSVLTVLHQDWLNGKEYKCKVSNKALPAPIEKTISKAKGQPREPRVYTLPPCRDELTKNQVSLTCLVKGFYPSDIAVEWESNGQPENNYKTTPPVLVSDGSFTLYSKLTVDKSRWQQGNVFSCSVMHEALHNHYTQKSLSLSPG
heavy: EVQLVESGGGLVKPGGSLRLSCAASGFTFSSYSMNWVRQAPGKGLEWVSSISSSSSYIYYADSVKGRFTISRDNAKNSLYLQMNSLRAEDTAVYYCARGAPIGAAAGWFDPWGQGTLVTVSSASTKGPSVFPLAPSSKSTSGGTAALGCLVKDYFPEPVTVSWNSGALTSGVHTFPAVLQSSGLYSLSSVVTVPSSSLGTQTYICNVNHKPSNTKVDKKVEPKSCDKTHTCPPCPAPELLGGPSVFLFPPKPKDTLMISRTPEVTCVVVDVSHEDPEVKFNWYVDGVEVHNAKTKPREEQYNSTYRVVSVLTVLHQDWLNGKEYKCKVSNKALPAPIEKTISKAKGQPREPQVCTLPPSRDELTENQVSLTCLVKGFYPSDIAVEWESNGQPENNYKTTPPVLDSDGSFFLYSWLTVDKSRWQQGNVFSCSVMHEALHNHYTQKSLSLSPG
light: DIQMTQSPSSVSASVGDRVTITCRASQGISSWLAWYQQKPGKAPKLLIYAASSLQSGVPSRFSGSGSGTDFTLTISSLQPEDFATYYCQQGVSFPRTFGGGTKVEIKRTVAAPSVFIFPPSDEQLKSGTASVVCLLNNFYPREAKVQWKVDNALQSGNSQESVTEQDSKDSTYSLSSTLTLSKADYEKHKVYACEVTHQGLSSPVTKSFNRGEC
notes: the condition stands under assay; also called AB0192 Lot AB0192-005
By Kd is commonly meant a measure of binding affinity in units of concentration. In general, koff refers to the rate constant with which the complex falls apart. One may read the kon as a measure of how fast the partners come together. Take B1: the Kd with Human CLEC12A-His [1] amounted to 1.83 nM; with mFc-hNKG2D [2], 779 nM; with Human CD16a V158 [3], 178 nM; with Human CD32b it was 6100 nM; in the experiment with Human CLEC12A-His [4], 1.96 nM; with mFc-hNKG2D [5] it was 653 nM. For the same molecule, in the experiment with Human CD16a V158 [6], the Kd was 174 nM. Moreover, the koff in the experiment with Human CLEC12A-His [1] worked out at 0.00125 s⁻¹; in the experiment with mFc-hNKG2D [2], 0.146 s⁻¹; in the experiment with Human CD16a V158 [3], 0.0199 s⁻¹; with Human CLEC12A-His [4], 0.00147 s⁻¹; with mFc-hNKG2D [5], 0.121 s⁻¹; with Human CD16a V158 [6] it was 0.0194 s⁻¹. Further, the kon came to 685000 M⁻¹ s⁻¹ with Human CLEC12A-His [1]; 188000 M⁻¹ s⁻¹ in the experiment with mFc-hNKG2D [2]; 112000 M⁻¹ s⁻¹ in the experiment with Human CD16a V158 [3]; 749000 M⁻¹ s⁻¹ in the experiment with Human CLEC12A-His [4]; 185000 M⁻¹ s⁻¹ with mFc-hNKG2D [5]; 111000 M⁻¹ s⁻¹ with Human CD16a V158 [6].

B2: F3'-1602 TriNKET (other)
chain: QLQLQESGPGLVKPSETLSLTCTVSGFSLTNYGLHWIRQPPGKCLEWIGVIWSGGKTDYNPSLKSRVTISKDTSKNQFSLKLSSVQAADTAVYYCAKYDYDDSLDYWGQGTLVTVSSGGGGSGGGGSGGGGSGGGGSDIQMTQSPSSLSASVGDRVTITCHASQNINFWLSWYQQKPGKAPKLLIYEASNLHTGVPSRFSGSGSGTRFTLTISSLQPEDIATYYCQQSHSYPLTFGCGTKLEIKGSDKTHTCPPCPAPELLGGPSVFLFPPKPKDTLMISRTPEVTCVVVDVSHEDPEVKFNWYVDGVEVHNAKTKPREEQYNSTYRVVSVLTVLHQDWLNGKEYKCKVSNKALPAPIEKTISKAKGQPREPRVYTLPPCRDELTKNQVSLTCLVKGFYPSDIAVEWESNGQPENNYKTTPPVLVSDGSFTLYSKLTVDKSRWQQGNVFSCSVMHEALHNHYTQKSLSLSPG
heavy: EVQLVESGGGLVKPGGSLRLSCAASGFTFSSYSMNWVRQAPGKGLEWVSSISSSSSYIYYADSVKGRFTISRDNAKNSLYLQMNSLRAEDTAVYYCARGAPIGAAAGWFDPWGQGTLVTVSSASTKGPSVFPLAPSSKSTSGGTAALGCLVKDYFPEPVTVSWNSGALTSGVHTFPAVLQSSGLYSLSSVVTVPSSSLGTQTYICNVNHKPSNTKVDKKVEPKSCDKTHTCPPCPAPELLGGPSVFLFPPKPKDTLMISRTPEVTCVVVDVSHEDPEVKFNWYVDGVEVHNAKTKPREEQYNSTYRVVSVLTVLHQDWLNGKEYKCKVSNKALPAPIEKTISKAKGQPREPQVCTLPPSRDELTENQVSLTCLVKGFYPSDIAVEWESNGQPENNYKTTPPVLDSDGSFFLYSWLTVDKSRWQQGNVFSCSVMHEALHNHYTQKSLSLSPG
light: DIQMTQSPSSVSASVGDRVTITCRASQGISSWLAWYQQKPGKAPKLLIYAASSLQSGVPSRFSGSGSGTDFTLTISSLQPEDFATYYCQQGVSFPRTFGGGTKVEIKRTVAAPSVFIFPPSDEQLKSGTASVVCLLNNFYPREAKVQWKVDNALQSGNSQESVTEQDSKDSTYSLSSTLTLSKADYEKHKVYACEVTHQGLSSPVTKSFNRGEC
notes: CLEC12A scFv-Fc, NKG2D A49MI Fab-Fc, human IgG1 Fc; also called AB0237
Take B2: in experiment [7], the Kd came out at 0.57 nM, the koff stood at 0.000494 s⁻¹ and the kon amounted to 844000 M⁻¹ s⁻¹.

These data come from patent US20220119534A1 (DRAGONFLY THERAPEUTICS, published 2022).
